Measured values as given in patent US20090098570A1 (Daiichi Sankyo, published 2009).
No end group written: not given here. *: point of attachment. Biotin = O=C1N[C@H]2[C@H](CS[C@H]2CCCCC(=O)*)N1

Legend:
[1] = biological target: T1, His-LXRα/FLAG-RXRα heterodimer (ligand binding domains of human LXRα and human RXRα) (human, UniProt Q13133 164-447; P19793 201-462); assay: FRET (665/620 nm), anti-His tag antibody + streptavidin, biotinylated peptide; with Compound A, relative to DMSO-only control
T1 construct: Co-expressed in E. coli BL21(DE3) from pET15b-LXRα/FLAG-RXRα and purified together on Ni2+ resin; also called His-LXRα and FLAG-RXRα; heterodimer comprising LXRα and RXRα
T1 sequence 1: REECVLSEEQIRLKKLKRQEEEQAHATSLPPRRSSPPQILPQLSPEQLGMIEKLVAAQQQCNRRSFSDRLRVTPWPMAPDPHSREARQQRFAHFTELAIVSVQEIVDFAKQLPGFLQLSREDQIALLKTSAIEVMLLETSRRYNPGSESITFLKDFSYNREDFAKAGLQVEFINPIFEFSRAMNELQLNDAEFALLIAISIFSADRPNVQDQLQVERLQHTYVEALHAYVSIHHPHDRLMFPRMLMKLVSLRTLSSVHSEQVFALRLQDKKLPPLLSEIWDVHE
T1 sequence 2: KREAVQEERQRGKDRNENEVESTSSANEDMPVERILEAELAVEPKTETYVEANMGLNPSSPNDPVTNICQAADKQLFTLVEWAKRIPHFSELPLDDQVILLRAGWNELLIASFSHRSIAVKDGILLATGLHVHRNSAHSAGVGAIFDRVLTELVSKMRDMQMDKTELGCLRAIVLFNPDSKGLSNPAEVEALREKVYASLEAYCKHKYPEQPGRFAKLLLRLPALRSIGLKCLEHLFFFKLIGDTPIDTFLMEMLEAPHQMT
Protocol: (§1) Next, 10 μl of peptide reaction solution (1.00 μl of 5 μM peptide, 1.00 μl of 10× PBS, 2.50 μl of 2 M KF, 0.10 μl of 10% NP40, 0.20 μl of streptavidin (CIS Bio International) and 5.20 μl of H₂O) were added to each well of the 384-well assay plate and incubated for 17 hours at 4° C. The peptide added here was comprising of any of the amino acid sequences of (a) to (g) below, and the amino acid of the N-terminal was biotinylated.
(§2) The value obtained by multiplying 1000 by the value resulting from dividing the measured value at 665 nm when applying excitation light at 337 nm by the measured value at 620 nm was determined. This value was then divided by the value determined by the same method when only DMSO was added without adding LXR ligand (Compound A or Compound B), and this value was then multiplied by 100 and indicated as the percentage relative to the control (% of control) as shown in Table 6.
(§3) (1) According to the same method as Example 2) (using the following peptides (h) to (m), instead of the peptides (a) to (g) in Example 2), the amount of coactivator bound to the heterodimer LXRα and RXRα were determined.

[2] = biological target: T1, His-LXRα/FLAG-RXRα heterodimer (ligand …); assay: FRET (665/620 nm), anti-His tag antibody + streptavidin, biotinylated peptide; with Compound B, relative to DMSO-only control
Protocol: as §1, §2, §3

[3] = biological target: T2, His-LXRβ/FLAG-RXRα heterodimer (ligand binding domains of human LXRβ and human RXRα) (human) (UniProt P55055); assay: FRET (665/620 nm), anti-His tag antibody + streptavidin, biotinylated peptide; with Compound A, relative to DMSO-only control
T2 sequence 1: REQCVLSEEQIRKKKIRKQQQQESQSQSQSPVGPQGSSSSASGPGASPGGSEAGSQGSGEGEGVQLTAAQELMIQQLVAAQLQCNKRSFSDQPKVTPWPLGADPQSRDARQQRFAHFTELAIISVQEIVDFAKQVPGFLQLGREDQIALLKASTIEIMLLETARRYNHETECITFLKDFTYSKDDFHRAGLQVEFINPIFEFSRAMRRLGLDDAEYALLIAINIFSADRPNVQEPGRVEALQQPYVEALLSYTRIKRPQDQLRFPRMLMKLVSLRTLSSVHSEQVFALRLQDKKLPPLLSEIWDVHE
T2 sequence 2: T1 sequence 2

[4] = biological target: T2, His-LXRβ/FLAG-RXRα heterodimer (ligand binding domains of human LXRβ and human RXRα) (human); assay: FRET (665/620 nm), anti-His tag antibody + streptavidin, biotinylated peptide; with Compound B, relative to DMSO-only control
[5] = biological target: T1, His-LXRα/FLAG-RXRα heterodimer (ligand …); assay: FRET (665/620 nm), anti-His tag antibody + streptavidin, biotinylated peptide; with Compound A, relative to DMSO-only control; remark: listed apart in the source
[6] = biological target: T3, His-LXRβ/FLAG-RXRα heterodimer (ligand binding domains of human LXRβ and human RXRα) (human, UniProt P55055 155-460; P19793 201-462, limits assumed); assay: as above
T3 construct: Co-expressed in E. coli BL21(DE3) from pET15b-LXRβ/FLAG-RXRα and purified together on Ni2+ resin; also called His-LXRβ and FLAG-RXRα; heterodimer comprising LXRβ and RXRα
T3 sequence 1: T2 sequence 1
T3 sequence 2: T1 sequence 2

[7] = biological target: T1, His-LXRα/FLAG-RXRα heterodimer (ligand …); assay: FRET (665/620 nm), anti-His tag antibody + streptavidin, biotinylated peptide; with Compound B, relative to DMSO-only control; remark: listed apart in the source
[8] = biological target: T3, His-LXRβ/FLAG-RXRα heterodimer (ligand …); assay: as above

## Biotin-HSKASWAEFSILRELLAQDVLCD [PERC NRB2 peptide HSKASWAEFSILRELLAQDVLCD (aa 332-354)]
[1]
  % of control: 127 % of control
[2]
  % of control: 104 % of control

## Biotin-NKDVTLTSPLLVNLLQSDISAGHFGVNNKQ [ASC-2 NR-1 peptide … (LXXLL motif on the N-terminal side of ASC-2)]
[3]
  % of control: 114 % of control
[4]
  % of control: 115 % of control

## Biotin-QKPTSGPQTPQAQQKSLLQQLLTE [SRC-1-4 peptide QKPTSGPQTPQAQQKSLLQQLLTE (the fourth LXXLL motif from the N-terminal side of SRC-1)]
[5]
  % of control: 207 % of control
[6]
  % of control: 155 % of control
[7]
  % of control: 128 % of control
[8]
  % of control: 144 % of control

## Biotin-HGTSLKEKHKILHRLLQDSSSPVDL [TIF2 peptide HGTSLKEKHKILHRLLQDSSSPVDL (aa 679-703)]
[5]
  % of control: 267 % of control
[7]
  % of control: 157 % of control

## Biotin-KQEPVSPKKKENALLRYLLDKDDTK [TIF2 NRB2 peptide … (aa 731-755)]
[3]
  % of control: 125 % of control
[4]
  % of control: 124 % of control

## Biotin-SPKKKENNALLRYLLDRDDPSDALSK [ACTR NRB3 peptide … (aa 728-753)]
[3]
  % of control: 129 % of control
[4]
  % of control: 103 % of control

## Biotin-CCFCGEDHPRQGSILYSLLTSSKQT (cysteine pairing not given here) [DAX1 peptide … (aa 132-156)]
[3]
  % of control: 116 % of control
[4]
  % of control: 120 % of control

## Biotin-CPSSHSSLTERHKILHRLLQEGSPS [SRC-1-2 peptide CPSSHSSLTERHKILHRLLQEGSPS (the second LXXLL motif from the N-terminal side of SRC-1)]
[5]
  % of control: 267 % of control
[7]
  % of control: 182 % of control

## Biotin-CCFCGEDHPRQGSILYSLLTSSKQT (cysteine pairing not given here) [DAX1 peptide CCFCGEDHPRQGSILYSLLTSSKQT (aa 132-156)]
[1]
  % of control: 158 % of control
[2]
  % of control: 107 % of control

## Biotin-HGTSLKEKHKILHRLLQDSSSPVDL [TIF2 peptide … (aa 679-703)]
[3]
  % of control: 108 % of control
[4]
  % of control: 114 % of control

## Biotin-SPAMREAPTSLSQLLDNSGAPNVTIKPPGL (also called ASC2 MR-2) [ASC-2 NR-2 peptide SPAMREAPTSLSQLLDNSGAPNVTIKPPGL (LXXLL motif on the C-terminal side of ASC-2)]
[5]
  % of control: 254 % of control
[7]
  % of control: 137 % of control

## Biotin-GHGEDFSKVSQNPILTSLLQITGNG [TRAP220 peptide GHGEDFSKVSQNPILTSLLQITGNG (aa 590-614)]
[1]
  % of control: 131 % of control
[2]
  % of control: 107 % of control

## Biotin-KESKDHQLLRYLLDKDEKDL [SRC-1-3 peptide … (the third LXXLL motif from the N-terminal side of SRC-1)]
[3]
  % of control: 111 % of control
[4]
  % of control: 108 % of control

## Biotin-CPSSHSSLTERHKILHRLLQEGSPS [SRC-1-2 peptide … (the second LXXLL motif from the N-terminal side of SRC-1)]
[3]
  % of control: 120 % of control
[4]
  % of control: 119 % of control

## Biotin-KNPTSCSRRFYQLTKLLDSVQPIAR [PNRC peptide … (aa 848-872)]
[3]
  % of control: 109 % of control
[4]
  % of control: 107 % of control

## Biotin-HSKASWAEFSILRELLAQDVLCD [PERC NRB2 peptide … (aa 332-354)]
[3]
  % of control: 104 % of control
[4]
  % of control: 115 % of control

## Biotin-DGTPPPQEAEEPSLLKKLLLAPANT [PGC-1α peptide DGTPPPQEAEEPSLLKKLLLAPANT (aa 130-154)]
[5]
  % of control: 362 % of control
[6]
  % of control: 191 % of control
[7]
  % of control: 207 % of control
[8]
  % of control: 195 % of control

## Biotin-KESKDHQLLRYLLDKDEKDL [SRC-1-3 peptide KESKDHQLLRYLLDKDEKDL (the third LXXLL motif from the N-terminal side of SRC-1)]
[5]
  % of control: 181 % of control
[7]
  % of control: 112 % of control

## Biotin-GHGEDFSKVSQNPILTSLLQITGNG [TRAP220 peptide … (aa 590-614)]
[3]
  % of control: 111 % of control
[4]
  % of control: 116 % of control

## Biotin-KQEPVSPKKKENALLRYLLDKDDTK [TIF2 NRB2 peptide KQEPVSPKKKENALLRYLLDKDDTK (aa 731-755)]
[1]
  % of control: 268 % of control
[2]
  % of control: 127 % of control

## Biotin-SPKKKENNALLRYLLDRDDPSDALSK [ACTR NRB3 peptide SPKKKENNALLRYLLDRDDPSDALSK (aa 728-753)]
[1]
  % of control: 167 % of control
[2]
  % of control: 92 % of control

## Biotin-SPAMREAPTSLSQLLDNSGAPNVTIKPPGL [ASC-2 NR-2 peptide … (LXXLL motif on the C-terminal side of ASC-2)]
[3]
  % of control: 120 % of control
[4]
  % of control: 116 % of control

## Biotin-KNPTSCSRRFYQLTKLLDSVQPIAR [PNRC peptide KNPTSCSRRFYQLTKLLDSVQPIAR (aa 848-872)]
[1]
  % of control: 140 % of control
[2]
  % of control: 110 % of control

## Biotin-NKDVTLTSPLLVNLLQSDISAGHFGVNNKQ [ASC-2 NR-1 peptide NKDVTLTSPLLVNLLQSDISAGHFGVNNKQ (LXXLL motif on the N-terminal side of ASC-2)]
[5]
  % of control: 156 % of control
[7]
  % of control: 116 % of control
